In the experiment the target is TNFα (R&D Systems cat# 210-TA) (UniProt P01375). In words: cell-based or functional assay.
UniProt P01375, sequence (P01375 77-233 limits assumed): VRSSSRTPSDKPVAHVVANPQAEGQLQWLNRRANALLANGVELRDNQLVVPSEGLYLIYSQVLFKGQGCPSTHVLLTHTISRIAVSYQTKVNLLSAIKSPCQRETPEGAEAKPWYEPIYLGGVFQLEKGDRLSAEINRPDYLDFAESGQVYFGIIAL

The substance TNFα binding protein (TBP) yielded an IC50 on TNFα-induced binding of Fibronectin-coated beads to BEND cells of 0.769 mg/L.

For the origin of these results see patent US20080014172A1.
